Results published in PMC3470943, “Identification of BACE2 as an avid ß-amyloid-degrading protease” (Molecular Neurodegeneration, 2012).

Target: T1, BACE2 (Homo sapiens, UniProt Q9Y5Z0)
T1 construct: purchased R&D Systems
T1 sequence (Q9Y5Z0 63-518): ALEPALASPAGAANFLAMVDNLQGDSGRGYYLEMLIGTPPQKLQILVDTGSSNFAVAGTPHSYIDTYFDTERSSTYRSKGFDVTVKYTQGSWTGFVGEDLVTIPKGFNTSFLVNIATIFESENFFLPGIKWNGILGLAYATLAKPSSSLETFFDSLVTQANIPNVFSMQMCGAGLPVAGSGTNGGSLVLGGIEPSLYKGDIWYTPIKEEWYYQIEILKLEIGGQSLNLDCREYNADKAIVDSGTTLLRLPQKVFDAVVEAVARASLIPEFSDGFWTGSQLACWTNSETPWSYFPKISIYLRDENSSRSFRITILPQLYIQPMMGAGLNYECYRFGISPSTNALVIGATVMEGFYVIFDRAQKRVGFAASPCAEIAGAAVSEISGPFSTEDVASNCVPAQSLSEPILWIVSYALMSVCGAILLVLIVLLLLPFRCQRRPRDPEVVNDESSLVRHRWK
Assay: Cleavage of biotinylated Aβ by BACE2, immunoprecipitation/mass spectrometry (IP/MS)
Type: biochemical
Conditions: peptide 300 nM, BACE2 5 nM, within 1 h; 25 mM acetate buffer pH 4.0, 0.1% BSA; product Aβ34; SELDI-TOF MS
Method: We next investigated which peptide bond(s) within Aβ are hydrolyzed by BACE2 and BACE1. To that end, we co-incubated N-terminally biotinylated Aβ40 or Aβ42 (300nM) with BACE2 (5 nM) and analyzed the products by immunoprecipitation/mass spectrometry (IP/MS) (see Methods). […] To test whether any additional cleavages can occur, we incubated N-terminally biotinylated Aβ40 (300 nM) with a larger amount of BACE2 (25 nM) for 1 and 24 h. At these higher concentrations and longer incubation times, Aβ19 and Aβ20 were the principal N-terminal fragments remaining at the end of the reaction (Figure 3E-F).
The cleavage sites within Aβ40 and Aβ42 hydrolyzed by BACE2 and BACE1 were determined essentially as described with minor modifications. Briefly, Aβ peptides or biotinylated Aβ peptides were incubated for various lengths of time with recombinant BACE2 enzyme in Assay Buffer (25 mM acetate buffer, pH 4.0, supplemented with 0.1% BSA). The reaction was stopped by addition of protease inhibitor cocktail and pH adjustment. Aβ fragments were immediately precipitated by magnetic beads coated with streptavidin (for biotinylated Aβ) or magnetic beads coated with Ab9 antibody (for unmodified Aβ). […] Digested products were spotted onto a gold chip, dried, and analyzed using a Ciphergen ProteinChip SELDI time-of-flight system (Bio-Rad). […]

Row | extent of hydrolysis by BACE2 | Substance
1 | almost completely hydrolyzed | N-terminally biotinylated Aβ40: Aβ40 biotinylated at the N-terminus, substrate for IP/MS
2 | almost completely hydrolyzed | N-terminally biotinylated Aβ42: Aβ42 biotinylated at the N-terminus, substrate for IP/MS
